Where no end group is shown, it is not given here. MBP = not defined here A value given as a limit tells only on which side of the number the result lay.

For assay [1], the target named is T1, Kap104p (yeast (S. cerevisiae), UniProt P38217 1-918).
T1 construct: Kap104p, yeast homolog of Kapβ2; gene a gift from J. Aitchison, subcloned into pGEX-Tev; also called yeast Karyopherin β2 homolog; source: E. coli Rosetta(DE3)pLysS, purified (glutathione sepharose, TEV cleavage, anion exchange, gel filtration)
T1 sequence (looked up): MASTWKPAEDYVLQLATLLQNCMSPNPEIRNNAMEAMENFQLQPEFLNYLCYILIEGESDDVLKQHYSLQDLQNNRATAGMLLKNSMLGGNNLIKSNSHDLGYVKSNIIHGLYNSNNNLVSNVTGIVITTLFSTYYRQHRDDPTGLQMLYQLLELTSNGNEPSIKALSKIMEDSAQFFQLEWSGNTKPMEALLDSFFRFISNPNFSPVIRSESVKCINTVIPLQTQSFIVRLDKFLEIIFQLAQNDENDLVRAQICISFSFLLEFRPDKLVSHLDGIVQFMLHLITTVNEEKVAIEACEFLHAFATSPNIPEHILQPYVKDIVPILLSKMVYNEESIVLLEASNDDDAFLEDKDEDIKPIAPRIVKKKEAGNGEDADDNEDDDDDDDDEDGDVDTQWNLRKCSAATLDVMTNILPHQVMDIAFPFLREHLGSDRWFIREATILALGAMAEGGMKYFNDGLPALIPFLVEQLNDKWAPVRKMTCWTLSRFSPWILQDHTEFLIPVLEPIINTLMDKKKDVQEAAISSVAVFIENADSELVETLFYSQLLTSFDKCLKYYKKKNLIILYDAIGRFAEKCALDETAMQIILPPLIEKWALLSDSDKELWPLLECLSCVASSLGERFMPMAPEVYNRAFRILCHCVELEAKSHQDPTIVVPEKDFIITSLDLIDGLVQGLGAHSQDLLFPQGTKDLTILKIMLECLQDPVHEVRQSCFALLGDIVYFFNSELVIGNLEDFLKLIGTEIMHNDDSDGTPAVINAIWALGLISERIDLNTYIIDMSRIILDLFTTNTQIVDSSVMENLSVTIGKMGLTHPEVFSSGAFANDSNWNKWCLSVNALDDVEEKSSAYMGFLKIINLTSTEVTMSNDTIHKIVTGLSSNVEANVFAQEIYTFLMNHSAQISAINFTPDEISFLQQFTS
The assay can be described thus: ITC; 90–350 μM MBP-NLS titrated into 9–35 μM Kap104p in the cell; 20 °C; 20 mM Tris pH 7.5, 100 mM NaCl, 2 mM β-mercaptoethanol, 10% glycerol; 35 injections of 8 μl; single-site model. The following applies: both partners purified.

Assay [2] has as its target T2, Kap104p, P38217.
T2 chain: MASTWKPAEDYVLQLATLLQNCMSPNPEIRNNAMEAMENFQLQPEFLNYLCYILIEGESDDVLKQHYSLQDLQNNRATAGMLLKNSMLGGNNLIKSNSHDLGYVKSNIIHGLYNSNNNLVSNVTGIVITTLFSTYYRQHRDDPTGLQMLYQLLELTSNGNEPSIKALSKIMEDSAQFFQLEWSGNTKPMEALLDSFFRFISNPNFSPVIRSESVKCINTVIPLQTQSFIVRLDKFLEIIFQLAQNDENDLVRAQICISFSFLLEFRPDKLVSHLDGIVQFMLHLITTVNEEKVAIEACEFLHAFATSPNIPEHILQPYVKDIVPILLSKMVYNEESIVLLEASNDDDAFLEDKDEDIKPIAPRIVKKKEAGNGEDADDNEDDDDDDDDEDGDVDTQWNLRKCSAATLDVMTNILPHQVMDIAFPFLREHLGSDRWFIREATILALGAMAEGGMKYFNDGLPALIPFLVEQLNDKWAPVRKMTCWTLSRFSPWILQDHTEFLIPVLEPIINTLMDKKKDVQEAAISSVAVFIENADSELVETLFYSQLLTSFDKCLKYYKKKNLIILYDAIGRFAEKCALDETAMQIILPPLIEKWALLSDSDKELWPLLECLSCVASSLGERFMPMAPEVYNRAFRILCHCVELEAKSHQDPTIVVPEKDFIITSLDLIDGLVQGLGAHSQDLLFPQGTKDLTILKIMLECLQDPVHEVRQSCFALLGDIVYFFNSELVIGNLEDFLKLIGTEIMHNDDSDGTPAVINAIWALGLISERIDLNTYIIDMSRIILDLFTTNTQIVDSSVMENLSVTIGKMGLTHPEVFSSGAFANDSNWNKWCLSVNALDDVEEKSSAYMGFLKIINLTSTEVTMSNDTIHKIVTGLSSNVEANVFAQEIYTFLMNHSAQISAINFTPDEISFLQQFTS
Description: ITC. Background: Isothermal titration calorimetry measures the heat released or taken up as one component is titrated into another.

B1: MBP–Hrp1p NLS (domain or fragment, S. cerevisiae, UniProt Q99383 494-534, looked up)
chain: RDRNDRDRDYNHRSGGNHRRNGRGGRGGYNRRNNGYHPYNR
notes: Hrp1p NLS, residues 494-534; also called Hrp1p NLS wild type; source: E. coli BL21(DE3), purified (amylose resin, cation exchange)
Turning to B1, the Kd – broadly, the equilibrium constant for the complex coming apart – in assay [1] was 32 nM.

B2: MBP–Hrp1p NLS 531PY532/AA (domain or fragment, S. cerevisiae, UniProt Q99383 494-534, looked up)
chain: {MBP}-RDRNDRDRDYNHRSGGNHRRNGRGGRGGYNRRNNGYHAANR
modifications: reading uncertain
notes: Hrp1p NLS, residues 494-534; source: E. coli BL21(DE3), purified (amylose resin, cation exchange)
Turning to B2, in assay [1], the equilibrium dissociation constant (Kd) is > 10000 nM.

B3: MBP–Hrp1p NLS Y532F (domain or fragment, S. cerevisiae, UniProt Q99383 494-534, looked up)
chain: RDRNDRDRDYNHRSGGNHRRNGRGGRGGYNRRNNGYHPFNR
notes: as for B2
Regarding B3, in assay [1], the “fold decrease in affinity against wild type” value (“fold decrease in affinity” for short) came out at 4 fold.

B4: MBP–Hrp1p NLS 506RSGG509/AAAA (domain or fragment, S. cerevisiae, UniProt Q99383 494-534, looked up)
chain: RDRNDRDRDYNHAAAANHRRNGRGGRGGYNRRNNGYHPYNR
notes: as for B2
As for B4, in assay [1], the binding result was “binds”. Moreover, in assay [2] (chain shown with the change), the ddG is 0.02 kcal/mol and the ratio to parent was found to be 1.3. Further, in assay [2] (chain shown with the change;, parent: 0.09 ± 0.7), the other: TΔS is -2.6 kcal/mol/K. Moreover, the Kd in assay [2] (chain shown with the change;, parent: 32 ± 16) stood at 42 nM. Also, the other: ΔH in assay [2] (chain shown with the change;, parent: -10.0 ± 0.5) is -12.6 kcal/mol. Also, the dG in assay [2] (chain shown with the change;, parent: -10.1 ± 0.3) was -10 kcal/mol.

B5: MBP–Hrp1p NLS Y532H (domain or fragment, S. cerevisiae, UniProt Q99383 494-534, looked up)
chain: RDRNDRDRDYNHRSGGNHRRNGRGGRGGYNRRNNGYHPHNR
notes: as for B2
Regarding B5, in assay [1], binding was put at a Kd of 1000 nM.

B6: MBP–Hrp1p NLS Y532M (domain or fragment, S. cerevisiae, UniProt Q99383 494-534, looked up)
chain: RDRNDRDRDYNHRSGGNHRRNGRGGRGGYNRRNNGYHPMNR
notes: as for B2
For the molecule B6, the Kd in assay [1] came out at 2000 nM.

B7: MBP–Nab2p NLS (domain or fragment, S. cerevisiae, UniProt P32505 201-251, looked up)
chain: DNSQRFTQRGGGAVGKNRRGGRGGNRGGRNNNSTRFNPLAKALGMAGESNM
notes: Nab2p NLS, residues 201-251 (methods; the results say 201-250); also called Nab2p NLS wild type; source: E. coli BL21(DE3), purified (amylose resin, cation exchange)
Molecule B7 returned a Kd in assay [1] of 37 nM.

B8: MBP–Nab2p NLS L239K (domain or fragment, S. cerevisiae, UniProt P32505 201-251, looked up)
chain: DNSQRFTQRGGGAVGKNRRGGRGGNRGGRNNNSTRFNPKAKALGMAGESNM
notes: Nab2p NLS, residues 201-251; also called L239 to K; source: E. coli BL21(DE3), purified (amylose resin, cation exchange)
Regarding B8, the binding result in assay [1] was “binds”.

B9: MBP–Nab2p NLS R219A (domain or fragment, S. cerevisiae, UniProt P32505 201-251, looked up)
chain: DNSQRFTQRGGGAVGKNRAGGRGGNRGGRNNNSTRFNPLAKALGMAGESNM
notes: Nab2p NLS, residues 201-251; source: E. coli BL21(DE3), purified (amylose resin, cation exchange)
Consider B9, for which, in assay [1], the “KD,mutant/KD,wild type” value was ~1.

B10: MBP–Nab2p NLS R222A (domain or fragment, S. cerevisiae, UniProt P32505 201-251, looked up)
chain: DNSQRFTQRGGGAVGKNRRGGAGGNRGGRNNNSTRFNPLAKALGMAGESNM
notes: as for B9
For the molecule B10, the “KD,mutant/KD,wild type” value in assay [1] was ~1.

B11: MBP–Nab2p NLS R218, R219, R222, R226, R229/AAAAA (domain or fragment, S. cerevisiae, UniProt P32505 201-251, looked up)
chain: DNSQRFTQRGGGAVGKNAAGGAGGNAGGANNNSTRFNPLAKALGMAGESNM
notes: Nab2p NLS, residues 201-251; also called pentamutant; source: E. coli BL21(DE3), purified (amylose resin, cation exchange)
In turn, B11 registered a Kd in assay [1] of 2250 nM.

B12: MBP–Nab2p NLS L239E (domain or fragment, S. cerevisiae, UniProt P32505 201-251, looked up)
chain: DNSQRFTQRGGGAVGKNRRGGRGGNRGGRNNNSTRFNPEAKALGMAGESNM
notes: as for B9
Regarding B12, the “fold decrease in affinity” value in assay [1] is 7 fold.

B13: MBP–Nab2p NLS L239D (domain or fragment, S. cerevisiae, UniProt P32505 201-251, looked up)
chain: DNSQRFTQRGGGAVGKNRRGGRGGNRGGRNNNSTRFNPDAKALGMAGESNM
notes: as for B9
On to B13, for which, in assay [1], the “fold decrease in affinity” value is 11 fold.

B14: MBP–Nab2p NLS F236L (domain or fragment, S. cerevisiae, UniProt P32505 201-251, looked up)
chain: DNSQRFTQRGGGAVGKNRRGGRGGNRGGRNNNSTRLNPLAKALGMAGESNM
notes: as for B9
For the molecule B14, in assay [1], the binding result is reported as “binds”.

B15: MBP–Nab2p NLS K216A (domain or fragment, S. cerevisiae, UniProt P32505 201-251, looked up)
chain: DNSQRFTQRGGGAVGANRRGGRGGNRGGRNNNSTRFNPLAKALGMAGESNM
notes: as for B9
For the molecule B15, in assay [1], the binding result is recorded as “binds”.

B16: MBP–Nab2p NLS R235K (domain or fragment, S. cerevisiae, UniProt P32505 201-251, looked up)
chain: DNSQRFTQRGGGAVGKNRRGGRGGNRGGRNNNSTKFNPLAKALGMAGESNM
notes: Nab2p NLS, residues 201-251; also called R235 to lysine; source: E. coli BL21(DE3), purified (amylose resin, cation exchange)
As to B16, the “KD,mutant/KD,wild type” value in assay [1] was 1.

B17: MBP–Nab2p NLS R235A, 238PL239/AA (domain or fragment, S. cerevisiae, UniProt P32505 201-251, looked up)
chain: DNSQRFTQRGGGAVGKNRRGGRGGNRGGRNNNSTAFNAAAKALGMAGESNM
notes: as for B9
In assay [1], B17 had a Kd of 544 nM.

B18: MBP–Nab2p NLS L239M (domain or fragment, S. cerevisiae, UniProt P32505 201-251, looked up)
chain: DNSQRFTQRGGGAVGKNRRGGRGGNRGGRNNNSTRFNPMAKALGMAGESNM
notes: Nab2p NLS, residues 201-251; also called L239 to M; source: E. coli BL21(DE3), purified (amylose resin, cation exchange)
Turning to B18, the binding result in assay [1] is given as “binds”.

B19: MBP–Nab2p NLS L239W (domain or fragment, S. cerevisiae, UniProt P32505 201-251, looked up)
chain: DNSQRFTQRGGGAVGKNRRGGRGGNRGGRNNNSTRFNPWAKALGMAGESNM
notes: Nab2p NLS, residues 201-251; also called L239 to W; source: E. coli BL21(DE3), purified (amylose resin, cation exchange)
As for B19, the binding result in assay [1] is recorded as “binds”.

For the origin of these results see PMC2408616, “Modular Organization and Combinatorial Energetics of Proline–Tyrosine Nuclear Localization Signals” (PLoS Biology, 2008).
